Reference: patent US20160084821A1

Molecular target: BRCA1 protein (mouse) (mouse) (UniProt P48754)
Experiment: cell-based or functional assay

UniProt P48754, sequence (P48754 whole entry): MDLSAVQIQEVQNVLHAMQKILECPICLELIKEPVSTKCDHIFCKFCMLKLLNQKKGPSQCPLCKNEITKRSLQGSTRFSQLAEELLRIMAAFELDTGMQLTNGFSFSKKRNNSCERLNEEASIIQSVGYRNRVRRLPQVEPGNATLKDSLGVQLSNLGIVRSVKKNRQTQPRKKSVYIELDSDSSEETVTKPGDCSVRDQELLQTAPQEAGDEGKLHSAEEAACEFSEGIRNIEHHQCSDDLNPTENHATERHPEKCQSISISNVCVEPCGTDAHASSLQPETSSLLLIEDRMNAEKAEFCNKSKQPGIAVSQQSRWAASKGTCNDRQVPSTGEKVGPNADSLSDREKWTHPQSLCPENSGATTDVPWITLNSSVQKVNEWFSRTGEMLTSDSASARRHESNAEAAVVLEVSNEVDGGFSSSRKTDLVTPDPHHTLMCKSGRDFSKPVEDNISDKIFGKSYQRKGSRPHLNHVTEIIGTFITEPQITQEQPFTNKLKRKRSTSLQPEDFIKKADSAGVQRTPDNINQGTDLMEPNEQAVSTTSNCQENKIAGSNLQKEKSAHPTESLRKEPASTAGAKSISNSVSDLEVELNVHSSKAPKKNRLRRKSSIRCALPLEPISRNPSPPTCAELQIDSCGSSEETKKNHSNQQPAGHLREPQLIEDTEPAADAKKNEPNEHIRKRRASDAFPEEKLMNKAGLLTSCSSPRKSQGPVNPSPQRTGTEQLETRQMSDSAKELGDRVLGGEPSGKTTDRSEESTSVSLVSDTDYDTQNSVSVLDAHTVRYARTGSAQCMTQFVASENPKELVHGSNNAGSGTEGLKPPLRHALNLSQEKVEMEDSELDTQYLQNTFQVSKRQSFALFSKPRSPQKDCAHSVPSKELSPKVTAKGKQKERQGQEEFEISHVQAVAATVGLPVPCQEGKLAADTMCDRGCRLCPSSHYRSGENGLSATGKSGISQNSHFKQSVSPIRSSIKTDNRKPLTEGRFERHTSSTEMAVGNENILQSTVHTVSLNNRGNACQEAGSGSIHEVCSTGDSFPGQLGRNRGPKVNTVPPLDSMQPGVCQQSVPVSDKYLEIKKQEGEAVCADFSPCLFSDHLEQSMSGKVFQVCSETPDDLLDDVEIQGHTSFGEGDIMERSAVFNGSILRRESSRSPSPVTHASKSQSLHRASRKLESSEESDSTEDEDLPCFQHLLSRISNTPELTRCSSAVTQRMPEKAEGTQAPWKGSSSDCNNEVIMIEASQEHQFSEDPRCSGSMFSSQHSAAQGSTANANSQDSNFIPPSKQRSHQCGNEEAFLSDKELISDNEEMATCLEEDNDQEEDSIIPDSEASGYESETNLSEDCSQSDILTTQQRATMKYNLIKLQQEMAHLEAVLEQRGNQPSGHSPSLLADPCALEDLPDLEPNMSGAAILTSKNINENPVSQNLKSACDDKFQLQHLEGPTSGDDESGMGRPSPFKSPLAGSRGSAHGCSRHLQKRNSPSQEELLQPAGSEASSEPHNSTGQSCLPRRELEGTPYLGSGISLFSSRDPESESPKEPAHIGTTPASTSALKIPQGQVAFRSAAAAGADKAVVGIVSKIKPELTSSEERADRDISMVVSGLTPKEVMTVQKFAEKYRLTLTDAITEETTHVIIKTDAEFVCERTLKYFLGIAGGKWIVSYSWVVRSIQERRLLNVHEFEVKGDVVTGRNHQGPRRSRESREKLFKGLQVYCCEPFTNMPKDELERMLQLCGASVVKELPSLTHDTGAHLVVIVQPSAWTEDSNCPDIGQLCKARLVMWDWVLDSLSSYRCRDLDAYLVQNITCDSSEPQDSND

Q: Which anti-FANCD2 foci co-localized with regions of intense anti-BRCA1 staining (20 pachytene nuclei) does the source give for “FANCD2 protein (mouse, on meiotic chromosomes of spermatocytes) (from UniProt Q80V62 1-1450)” here?
A: 65%
